Data: publication PMC7608686, “The interaction of DNA repair factors ASCC2 and ASCC3 is affected by somatic cancer mutations” (Nature Communications, 2020)
Blank lines part the entries; values can stand above or below the binder they belong to. Ends that are not written are not given here.

B4: ASCC2^1-434 (domain or fragment, human, UniProt Q9H1I8 1-434, looked up)
chain: MPALPLDQLQITHKDPKTGKLRTSPALHPEQKADRYFVLYKPPPKDNIPALVEEYLERATFVANDLDWLLALPHDKFWCQVIFDETLQKCLDSYLRYVPRKFDEGVASAPEVVDMQKRLHRSVFLTFLRMSTHKESKDHFISPSAFGEILYNNFLFDIPKILDLCVLFGKGNSPLLQKMIGNIFTQQPSYYSDLDETLPTILQVFSNILQHCGLQGDGANTTPQKLEERGRLTPSDMPLLELKDIVLYLCDTCTTLWAFLDIFPLACQTFQKHDFCYRLASFYEAAIPEMESAIKKRRLEDSKLLGDLWQRLSHSRKKLMEIFHIILNQICLLPILESSCDNIQGFIEEFLQIFSSLLQEKRFLRDYDALFPVAEDISLLQQASSVLDETRTAYILQAVESAWEGVDRRKATDAKDPSVIEEPNGEPNGVTVTA
notes: source: E. coli BL21 (DE3), purified (Ni-NTA, SEC); not shown: His6, N-terminal, cleaved

What was measured:
[1] = biological target: B4; test: ITC; iTC200; ASCC3 variant (10 µM) in the sample cell, ASCC2 variant (100 µM) in the syringe; 20 mM HEPES-NaOH, pH 7.5, 100 mM NaCl; 25 °C; stoichiometry fixed to 1; conditions: both partners purified
[2] = biological target: T1, ASCC2^1-434 (human, UniProt Q9H1I8 1-434); test: ITC
T1 chain: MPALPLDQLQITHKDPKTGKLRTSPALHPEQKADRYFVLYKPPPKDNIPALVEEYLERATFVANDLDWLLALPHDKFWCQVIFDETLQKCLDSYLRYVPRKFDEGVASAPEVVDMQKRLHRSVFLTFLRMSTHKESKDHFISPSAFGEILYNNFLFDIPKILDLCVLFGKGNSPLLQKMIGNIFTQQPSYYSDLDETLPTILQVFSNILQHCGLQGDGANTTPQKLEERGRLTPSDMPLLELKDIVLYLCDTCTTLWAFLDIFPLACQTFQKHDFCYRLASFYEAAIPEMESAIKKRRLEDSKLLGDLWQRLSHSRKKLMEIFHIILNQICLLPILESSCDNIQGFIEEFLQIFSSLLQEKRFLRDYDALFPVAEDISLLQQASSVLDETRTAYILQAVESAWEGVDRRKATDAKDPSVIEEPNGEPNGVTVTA

[3] = biological target: T2, ASCC2^1-434, elastase fragment of ASCC2^FL (human, UniProt Q9H1I8 1-434); test: SEC; SEC of the fragments left after elastase digestion of the ASCC2^FL-ASCC3^NTR complex; conditions: both partners purified
T2 construct: Proteolytic fragment; also called approximately 50 kDa fragment of ASCC2; source: elastase digestion of the purified ASCC2^FL-ASCC3^NTR complex (proteins from insect cells); not shown: His10, N-terminal, cleaved
T2 sequence (looked up): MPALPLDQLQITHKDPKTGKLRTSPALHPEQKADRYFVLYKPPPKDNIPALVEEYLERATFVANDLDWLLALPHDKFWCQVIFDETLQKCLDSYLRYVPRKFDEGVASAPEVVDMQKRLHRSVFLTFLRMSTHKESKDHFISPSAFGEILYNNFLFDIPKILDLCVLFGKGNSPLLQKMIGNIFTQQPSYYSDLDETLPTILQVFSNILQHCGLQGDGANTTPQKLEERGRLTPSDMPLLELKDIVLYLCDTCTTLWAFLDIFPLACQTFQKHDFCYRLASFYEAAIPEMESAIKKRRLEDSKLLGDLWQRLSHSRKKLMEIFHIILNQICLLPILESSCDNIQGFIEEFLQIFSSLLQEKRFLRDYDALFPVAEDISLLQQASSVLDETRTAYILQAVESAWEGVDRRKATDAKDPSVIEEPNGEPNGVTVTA

[4] = biological target: T3, Seleno-methionine (SeMet)-derivatized ASCC2^1-434 (human, UniProt Q9H1I8 1-434, seleno-methionine (SeMet) in place of methionine); test: crystal structure; SeMet SAD, 2.7 Å; complex reconstituted by SEC from SeMet ASCC2^1-434 (E. coli) and ASCC3^1-207 (insect cells); hanging drop, 4 °C, 0.1 M MES-NaOH, pH 6.5; conditions: both partners purified
T3 construct: Unmodified complex (co-produced in High Five cells) was crystallized too; the structure was solved by SAD with the SeMet complex; source: E. coli BL21 (DE3), PASM-5052 medium with SeMet, purified (Ni-NTA, SEC); not shown: His6, N-terminal, cleaved
T3 sequence (looked up): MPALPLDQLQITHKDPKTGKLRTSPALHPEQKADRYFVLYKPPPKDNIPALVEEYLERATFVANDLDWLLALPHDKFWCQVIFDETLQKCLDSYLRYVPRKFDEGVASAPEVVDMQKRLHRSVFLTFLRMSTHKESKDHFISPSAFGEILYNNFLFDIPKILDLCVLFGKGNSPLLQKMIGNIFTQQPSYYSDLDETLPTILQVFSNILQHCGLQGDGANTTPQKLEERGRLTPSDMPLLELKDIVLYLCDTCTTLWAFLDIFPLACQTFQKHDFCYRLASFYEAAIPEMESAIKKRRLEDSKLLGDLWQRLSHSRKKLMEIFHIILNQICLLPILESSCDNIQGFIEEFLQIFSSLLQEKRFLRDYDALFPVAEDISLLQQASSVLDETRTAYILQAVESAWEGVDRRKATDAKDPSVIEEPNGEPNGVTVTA

[5] = biological target: T4, ASCC3^1-22 peptide R5L (human, UniProt Q8N3C0 1-22, R5L, C-terminal amination); test: ITC; iTC200; ASCC3^1-22 peptide (10-15 µM) in the sample cell, ASCC2^1-434 (200 µM or 400 µM) in the syringe; 20 mM HEPES-NaOH, pH 7.5, 100 mM NaCl; 25 °C; stoichiometry fixed to 1; conditions: both partners purified
T4 construct: ASCC3, human, N-terminal 22 residues with the somatic cancer substitution R5L; source: synthetic peptide (GL biochem)
T4 peptide (looked up): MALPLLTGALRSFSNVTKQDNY

[6] = biological target: T5, ASCC3^1-22 peptide R5G (human, UniProt Q8N3C0 1-22, R5G, C-terminal amination); test: as above; conditions: both partners purified
T5 construct: ASCC3, human, N-terminal 22 residues with the somatic cancer substitution R5G; source: synthetic peptide (GL biochem)
T5 peptide (looked up): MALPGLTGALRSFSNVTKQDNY

[7] = biological target: T6, ASCC3^1-22 peptide R5C (human, UniProt Q8N3C0 1-22, R5C, C-terminal amination); test: as above; conditions: both partners purified
T6 construct: ASCC3, human, N-terminal 22 residues with the somatic cancer substitution R5C; source: synthetic peptide (GL biochem)
T6 peptide (looked up): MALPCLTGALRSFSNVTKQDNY

[8] = biological target: T7, ASCC3^1-22 peptide R5H (human, UniProt Q8N3C0 1-22, R5H, C-terminal amination); test: as above; conditions: both partners purified
T7 construct: ASCC3, human, N-terminal 22 residues with the somatic cancer substitution R5H; source: synthetic peptide (GL biochem)
T7 peptide (looked up): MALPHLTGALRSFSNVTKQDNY

Kd [1]: 0.0477 µM
B1: ASCC3^1-161 (domain or fragment, human, UniProt Q8N3C0 1-161, looked up)
chain: MALPRLTGALRSFSNVTKQDNYNEEVADLKIKRSKLHEQVLDLGLTWKKIIKFLNEKLEKSKMQSINEDLKDILHAAKQIVGTDNGREAIESGAAFLFMTFHLKDSVGHKETKAIKQMFGPFPSSSATAACNATNRIISHFSQDDLTALVQMTEKEHGDRV
notes: ASCC3, human, residues 1-161 (lacks the C-arm); source: E. coli BL21 (DE3), purified (Ni-NTA, SEC); not shown: His6, N-terminal, cleaved

Kd [2]: 21.6 µM
Binder: MALPGLTGALRSFSNVTKQDNY-NH2 [ASCC3^1-22 peptide R5G]

binding result [3]: binds
B2: ASCC3^1-207, elastase fragment of ASCC3^NTR (domain or fragment, human, UniProt Q8N3C0 1-207, looked up)
chain: MALPRLTGALRSFSNVTKQDNYNEEVADLKIKRSKLHEQVLDLGLTWKKIIKFLNEKLEKSKMQSINEDLKDILHAAKQIVGTDNGREAIESGAAFLFMTFHLKDSVGHKETKAIKQMFGPFPSSSATAACNATNRIISHFSQDDLTALVQMTEKEHGDRVFFGKNLAFSFDMHDLDHFDELPINGETQKTISLDYKKFLNEHLQEA
notes: ASCC3, human, N-terminal 207 residues, mapped by mass spectrometric fingerprinting; Proteolytic fragment; also called N-terminal, 207-residue fragment of ASCC3; source: elastase digestion of the purified ASCC2^FL-ASCC3^NTR complex (proteins from insect cells); not shown: His10, N-terminal, cleaved

binding result [4]: binds
B3: ASCC3^1-207 (domain or fragment, human, UniProt Q8N3C0 1-207, looked up)
chain: MALPRLTGALRSFSNVTKQDNYNEEVADLKIKRSKLHEQVLDLGLTWKKIIKFLNEKLEKSKMQSINEDLKDILHAAKQIVGTDNGREAIESGAAFLFMTFHLKDSVGHKETKAIKQMFGPFPSSSATAACNATNRIISHFSQDDLTALVQMTEKEHGDRVFFGKNLAFSFDMHDLDHFDELPINGETQKTISLDYKKFLNEHLQEA
notes: ASCC3, human, residues 1-207; residues 1-186 traced in the model; source: insect cells, recombinant, purified (Ni-NTA, SEC); not shown: His10, N-terminal, cleaved

Binder: B4
fold weaker interaction than with WT ASCC3^1-22 [5]: ~8 fold
fold weaker interaction than with WT ASCC3^1-22 [6]: ~11 fold
fold reduced affinity compared to WT ASCC3^1-22 [7]: > 20 fold
fold reduced affinity compared to WT ASCC3^1-22 [8]: > 20 fold

Kd [2]: 46.5 µM
Binder: MALPCLTGALRSFSNVTKQDNY-NH2 [ASCC3^1-22 peptide R5C]
